# From patent US20230295310A1 (ABCELLERA BIOLOGICS, published 2023)
# Where a chain is given by its changes, count along the chain named.
# B1: mAb 178 (antibody, V domains shown)
# VH: EVQLVESGGGLVQPGRSLRLSCAASGFTFDDYTMHWVRQAPGKGLEWVSDISWNSGTIGYADSVKGRFTISRDNAKNSLYLQMNSLRAEDTALYYCVKDSSGYGHYYKYYMDVWGKGTTVTVSS
# VL: DIQMTQSPSSLSASVGDRVTITCRASQSISNYLNWYQQKAGKVPKVLIYGSSSLQSGVPSRFSGSGSGTDFTLTISSLQPEDFASYYCQQTYSSPLTFGGGTKVDFK
# B2: mAb 180 (antibody, V domains shown)
# VH: B1 VH with Q3N, A40V, D50N, T57S, I58L, N77D, A88V, V97A, Y107N, K108S
# VL: DIQMTQSPSSLSASVGDRVTITCRASQSIRNYLNWYQQKPGKAPKVLIYSASSLQSGVPSRFSGSGSGTDFTLTISSLQPEDFASFYCQQTYSTPITFGQGTRLEIK
# B3: mAb 179 (antibody, V domains shown)
# VH: B1 VH with A40T, T57S, S78T, Y107L, K108Y
# VL: B2 VL with K39S, K42R, V46L, Y49F, A84V, S85T, F86Y, T91R
# B4: mAb 55 (antibody, V domains shown)
# VH: QVQLEQSGAEVKKPGASVKVSCKTSGYIFANYDINWVRQATGQGLEWMGWMNPKSGKAGYAQKFQGRVTMTSNTPINTAYMELSSLRSEDTAVYYCAREGHYDFWRGFYSFDYWGQGILVTVSS
# VL: DIQMTQSPSSLSASVGDRVTITCRASQGIRNDLGWYQQKPGKAPKRLIYTASSLQSGVPSRFSGSGSGTEFTLTISSLQPEDFATYFCLQYNTYPYTFGQGTKLEIK
# B5: mAb 71 (antibody, V domains shown)
# VH: QVQLVQSGAEVRKPGASVKVSCKASGYTFTKYDVNWVRQAPGQGLEWMGWMNSNNGNIGYAQKFQGRVTMTRKTSISTAYMELSSLRSEDTAVYYCAREGHYDFWRGFYNFDYWGQGTLVTVSS
# VL: B4 VL with G28D, R30K, T50A, F87Y, Y91H, T93F, Y96I, K103R
# B6: mAb 67 (antibody, V domains shown)
# VH: EVQLVESGGDLVQPGRSLRLSCAASGFTFDDCVIHWVRQAPGKGLEWVSGITWNSGRIGYADSVKGRFTISRDNAKNSLYLQMNSLRVEDTALYYCAKEGNYDFWSTYYRGYFDLWGRGTLVTVSS
# VL: B4 VL with K42I, T50A, S56G, S60L, F87Y, Y91H, T93S
# B7: mAb 43 (antibody, V domains shown)
# VH: QAQLVQSGSELKKPGASVKVSCKASGYTFTKHSMNWVRQAPGQGLEWMGWINTNTGNPMYAQGFTGRFVFSLDTSVTTAYLQISSLKAEDTAVYYCAREGDYDFWSGFFNFDYWGQGTLVTVSS
# VL: B4 VL with T50A, T69A, F87Y, Y91H, T93S, Y96R, L104V
# B8: mAb 68 (antibody, V domains shown)
# VH: EVQLVDSGGGLVQPGGSLRLSCSGSGFTFSSYWMSWVRQAPGKGLEWVANIKQDGSQKYYVDSVKGRFTISRDNVKNSLYLQMNSLRVEDTAVYYCARDESSSWYWYFDLWGRGTLVTVSS
# VL: DIQMTQSPSTLSASVGDRVTLTCRASQNIVKWLAWYQQKPGKAPKLLIYKASSLESGVPSWFSGSGSGTEFTLTINSLQPDDFATYYCQQYYTYSRTFGQGTKVEIK
# B9: mAb 54 (antibody, V domains shown)
# VH: EVQLEESGGGLVQPGGSLRLSCAASGFTFSRYSMNWVRQAPGKGLEWFSYISSSSRTIYYADSVKGRFTMSRDNAKNSLYLQMNSLRDEDTAVYFCARGDYYDSEGMDVWGKGTTVTVSS
# VL: DIQMTQSPSTLSASVGDRVTITCRASQTITTWLAWYQQKPGKAPKLLIYKASTLESGVPSRFSGSGSGTEFTLTISSLQPDDFATYHCQQYKTFSYTFGQGTKLDIK
# B10: mAb 175 (antibody, V domains shown)
# VH: EVELVESGGGLVQPGGSLRLSCAASGFTFSSNWMSWVRQAPGKGLEWVANIKQDGSEKYYVDSVKGRFTISRDNAKNSLYLKMNSLRAEDTAVYYCARDCSSNWYWYFDLWGRGTLVTVSS
# VL: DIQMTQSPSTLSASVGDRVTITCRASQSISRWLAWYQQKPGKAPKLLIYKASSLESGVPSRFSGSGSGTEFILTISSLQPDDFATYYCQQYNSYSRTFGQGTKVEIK
# B11: mAb 72 (antibody, V domains shown)
# VH: B8 VH with S23A, G24A, Q57E, Y80S, Q82E, V88A, V93L
# VL: B8 VL with L21I, N28S, V30S, S56N, W61R, N76S, Y92S, T93S
# B12: mAb 66 (antibody, V domains shown)
# VH: QVQLVQSGAEVKKPGASVKVSCKASGYTVTGYYMHWVRQAPGQGLEWMGWINPNSGGTNFAQNFQGRVTMTRDTSISTFYMDLSRLRSDDTAVYYCARGGAPVSYWFFDLWGRGTLVTVSS
# VL: DIQMTQSPSSLSASVGDRVTITCRASQSISRYLNWYQQKPGKAPKVLIYNTSSLKSGVPSRFSGSGSGTDFTLTISSLQPEDFATLYCQQSHSTPFTFGPGTKVDIK
# B13: mAb 176 (antibody, V domains shown)
# VH: EVELVESGGGLVQPGRSLRLSCAASGFKFDDYTMHWVRLPPGKGLEWVSGISWNSGTIDYGDSVKGRFTISRDNAKNSLYLQMNSLRVEDTALYYCAKDTSGYGHYFYYYMDVWGKGTTVTVSS
# VL: DIQMTQSPSSLSASIGDRVSITCRTSQIINNYLNWYQQKPGKAPKVLIYSASSLQSGVPSRFSGSGSGTDFTLTINSLQPEDFATYYCQQSYNFPITFGQGTRLELK
# B14: mAb 177 (antibody, V domains shown)
# VH: EVQLVESGGGLVQPGMSLRLSCAASGFTFDDYTMHWVRQSPGKGLEWVAGISWNSGTIGYGDSMKGRFTISRDNAKNSLDLQMNSLRVEDTALYYCAKDTSGYGHYYYYFMDVWGKGTTVTVSS
# VL: B13 VL with V46L, I75L, N76S, Y87F
# Biological target: human CD3 (human, UniProt P07766 23-207; P04234 22-171; P09693 23-182)
# Sequence (P07766 23-207, chain 1 of 3): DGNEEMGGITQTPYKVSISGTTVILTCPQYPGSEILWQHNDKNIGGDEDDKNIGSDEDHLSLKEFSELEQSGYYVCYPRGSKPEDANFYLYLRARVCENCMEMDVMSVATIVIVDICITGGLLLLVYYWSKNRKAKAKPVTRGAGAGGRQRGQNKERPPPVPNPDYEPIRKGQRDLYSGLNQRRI
# Sequence (P04234 22-171, chain 2 of 3): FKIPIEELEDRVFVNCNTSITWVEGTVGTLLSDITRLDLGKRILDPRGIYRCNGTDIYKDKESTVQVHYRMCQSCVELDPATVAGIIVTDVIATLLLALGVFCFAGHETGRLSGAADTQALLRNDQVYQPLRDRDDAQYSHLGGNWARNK
# Sequence (P09693 23-182, chain 3 of 3): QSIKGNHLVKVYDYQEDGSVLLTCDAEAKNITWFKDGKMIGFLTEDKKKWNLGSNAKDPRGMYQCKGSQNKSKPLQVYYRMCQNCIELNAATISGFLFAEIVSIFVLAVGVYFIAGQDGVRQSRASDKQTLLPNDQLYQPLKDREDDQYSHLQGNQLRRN
# Assay: cell-based or functional assay
Binder,"CD4 EC50 (nM); CD69/CD25 on human T cells, plate-coated antibody","CD8 EC50 (nM); CD69/CD25 on human T cells, plate-coated antibody"
B1,12.6 nM,12.6 nM
B2,6.54 nM,6.57 nM
B3,10.4 nM,9.87 nM
B4,8.54 nM,8.91 nM
B5,19.3 nM,19.2 nM
B6,22 nM,21.3 nM
B7,24.6 nM,25.6 nM
B8,12.5 nM,12.6 nM
B9,13.3 nM,15.2 nM
B10,21.6 nM,21.2 nM
B11,16.4 nM,18.2 nM
B12,13 nM,13.2 nM
B13,6.38 nM,6.37 nM
B14,14.3 nM,14.2 nM
